From publication PMC6274866

Assays:
[1] = molecular target: STIM2-2β-OASF (residues 238–504 containing the naturally occurring VAASYLIQ insertion after E383) (human); assay: SEC-MALS; 1 mg/mL protein injected on Superdex 200 Increase 10/300 GL at 10 °C; 20 mM TRIS, 300 mM NaCl, 1 mM DTT, pH 8.0; without CaCl2; stoichiometric ratio = MALS molecular weight / theoretical monomer mass
[2] = molecular target: STIM2-2β-OASF (residues 238–504 containing the naturally occurring VAASYLIQ insertion after E383) (human); assay: SEC-MALS; 1 mg/mL protein injected on Superdex 200 Increase 10/300 GL at 10 °C; 20 mM TRIS, 300 mM NaCl, 1 mM DTT, pH 8.0; with 25 mM CaCl2; stoichiometric ratio = MALS molecular weight / theoretical monomer mass

STIM2-2β-OASF (residues 238–504 containing the naturally occurring VAASYLIQ insertion after E383) (domain or fragment), sequence (Q9P246 238-504): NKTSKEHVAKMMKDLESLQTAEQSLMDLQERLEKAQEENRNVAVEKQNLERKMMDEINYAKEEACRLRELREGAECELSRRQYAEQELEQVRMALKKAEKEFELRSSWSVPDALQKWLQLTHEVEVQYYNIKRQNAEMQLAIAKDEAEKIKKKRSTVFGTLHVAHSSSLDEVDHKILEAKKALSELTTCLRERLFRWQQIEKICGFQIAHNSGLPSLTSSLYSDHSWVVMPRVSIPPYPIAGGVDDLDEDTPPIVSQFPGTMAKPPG

## STIM2-2β-OASF (residues 238–504 containing the naturally occurring VAASYLIQ insertion after E383) (domain or fragment)
[1]
  stoichiometry N: 1.96
[2]
  stoichiometry N: 1.97
